Assay results from paper PMC6525113.

Biological target: Human methylmalonyl-CoA epimerase, wild-type (human) (UniProt Q96PE7)
Experiment: not stated; solution data (Supplemental Fig. S2)

- stoichiometry N: 2
Substance: Human methylmalonyl-CoA epimerase, wild-type (from UniProt Q96PE7 45-176) (enzyme)
